Laboratory results published in PMC13482807.

Biological target: Microtubule star (Mts) L186A (Drosophila) (UniProt P23696)
Assay: co-IP; S2 cells transfected with the tagged constructs; lysis in 50 mM Tris pH 7.5, 150 mM NaCl, 1% Triton X-100, 10% glycerol, 1 mM EDTA with phosphatase and protease inhibitors; FLAG-tagged proteins on anti-FLAG M2 agarose 1-2 h at 4 °C, eluted with 3x FLAG peptide; immunoblot (Figures EV3G,H, EV5C-E, 5B-D)

UniProt P23696, sequence (P23696 whole entry L186A): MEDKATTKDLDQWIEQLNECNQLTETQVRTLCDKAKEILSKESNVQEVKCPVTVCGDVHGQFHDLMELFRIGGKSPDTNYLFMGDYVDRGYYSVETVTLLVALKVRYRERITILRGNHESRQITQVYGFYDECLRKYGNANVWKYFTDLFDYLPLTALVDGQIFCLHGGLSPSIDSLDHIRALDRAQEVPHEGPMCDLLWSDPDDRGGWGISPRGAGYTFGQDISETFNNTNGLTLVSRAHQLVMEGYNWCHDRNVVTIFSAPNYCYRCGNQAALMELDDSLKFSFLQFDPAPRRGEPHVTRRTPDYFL

reduction of binding relative to Mts^WT: 50%
Substance: Connector of kinase to AP-1 (Cka), PP2A B''' regulatory subunit (natural protein)
